The target of the assay is truncated HsDNPH1 (Homo sapiens 2′-deoxynucleoside 5′-phosphate N-hydrolase 1) (human) (UniProt O43598). Nature of the assay: crystal structure; HsDNPH1^Trunc at 8 mg/mL in 30 mM Tris-HCl pH 7.5, 150 mM NaCl, hanging drop, 20 °C, reservoir pH 4.0 with 20% PEG 1500; unliganded crystals and crystals soaked with 50 mM dUMP.

As to “truncated HsDNPH1 (Homo sapiens 2′-deoxynucleoside 5′-phosphate N-hydrolase 1) (from UniProt O43598 20-162) (enzyme)”, the stoichiometry N (as a rule, the number of molecules, sites or subunits per partner or assembly) turned out to be 2.

The record behind these values is article PMC10483697.
